Measurements from patent EP4696714A1, “PREPARATION METHOD FOR NANOBODY TARGETING TISSUE FACTOR AND CONJUGATE AND USE THEREOF” (Fudan University, priority 2023, dated 2024).

What was measured:
[1] = system: 18 human tumor cell lines; conditions: average against 18 human tumor cell lines; cited from earlier work
[2] = compared with MMDX and doxorubicin; cited from earlier work
[3] = system: HCC1954 mammary pad xenograft; test: HCC1954 mammary pad xenograft experiment; assay type: in vivo; conditions: once a week, twice in total
[4] = system: KRAS^G12D pancreatic cancer HPAF-II xenograft tumor; test: Pancreatic cancer HPAF-II xenograft model; assay type: in vivo, Balb/c nude mice; conditions: 3 mg/kg, single-dose, tail vein
Experimental: Pancreatic ductal adenocarcinoma (PDAC) HPAF-II cells in logarithmic growth phase were subcutaneously inoculated into the bank of 5-week-old female Balb/c nude mice (purchased from Shanghai Sippr-BK Laboratory Animal Co., Ltd.) at a density of 2.5×10^6 cells per 200 µL serum-free medium. When tumor volume reached 100-200 mm^3, animals were randomly grouped, 8 tumors per group. The preferred TF-NDCs such as 4-A02-MMAE, 4-A02-ABD-MMAE were administered via tail vein injection at 3 mg/kg or 1 mg/kg on the day of grouping, with hIgG1-MMAE as the negative control. Only one dose was administered throughout the experiment. Tumor volume and mouse body weight were measured twice a week to plot growth curves. Tumor volume (V) was calculated using the formula: V = 1/2 × a × b^2, where a and b represent tumor length and width, respectively.

[5] = molecular target: T1, human TF extracellular domain protein (TF-ECD, Met 1-Glu 251) (human, UniProt P13726 33-251); test: ForteBio OCTET R2 (called SPR), method of Example 2
T1 construct: range 1-251; also called human TF-ECD; not shown: His tag (protein captured on an NTA sensor as 'FDYKSD-01-His')

CN[C@H](C(=O)N[C@H](C(=O)N(C)[C@H](/C=C(\C)C(=O)O)C(C)C)C(C)(C)C)C(C)(C)c1ccccc1 [Taltobulin]
IC50 [1]: 2.5 nM

COc1cccc2c1C(=O)c1c(O)c3c(c(O)c1C2=O)C[C@@](O)(C(=O)CO)C[C@@H]3O[C@H]1C[C@H]2[C@H](O[C@@H]3[C@@H](OC)OCCN32)[C@H](C)O1 [PNU-159682]
increase in activity [2]: 3000 folds

B1: 4-A02-DXd (conjugate)
chain: QVQLVESGGGLVQPGGSLSLSCTASETISSTYIMGWHRRSPGKERELVAVISGDGVTHYADFVKGRFVISRDNAKNAVYLKMNFLTPEDTAVYYCYAAGRWNHWGQGTQVTVSSEPKSSDKTHTCPPCPAPEFEGGPSVFLFPPKPKDTLMISRTPEVTCVVVDVSHEDPEVKFNWYVDGVEVHNAKTKPREEQYNSTYRVVSVLTVLHQDWLNGKEYKCKVSNKALPASIEKTISKAKGQPREPQVYTLPPSRDELTKNQVSLTCLVKGFYPSDIAVEWESNGQPENNYKTTPPVLDSDGSFFLYSKLTVDKSRWQQGNVFSCSVMHEALHNHYTQKSLSLSPGK
inhibition of tumor growth ([3]; 10 mg/kg intravenous): significant inhibition of tumor growth and caused tumor regression

B2: 4-A02-ABD-MMAE: NDC of 4-A02-ABD (monomer) coupled to mc-vc-MMAE, DAR1 (conjugate)
chain: QVQLVESGGGLVQPGGSLSLSCTASETISSTYIMGWHRRSPGKERELVAVISGDGVTHYADFVKGRFVISRDNAKNAVYLKMNFLTPEDTAVYYCYAAGRWNHWGQGTQVTVSSGGGGSGGGGSGGGGSQHDEAVDANSLAEAKVLANRELDKYGVSDYYKNLINNAKTVEGVKALIDEILAALPAAACAAAHHHHHH
inhibition of tumor growth ([3]; 3 mg/kg intravenous): significant inhibition of tumor growth and caused tumor regression | anti-tumor effect (tumor volume) [4]: complete tumor regression

B3: original nanobody 4A02 (parental antibody 4A02, as comparator in Examples 11 and 12) (Fc fusion)
VHH: QVQLVESGGGLVQPGGSLSLSCTASETISSTYIMGWHRRSPGKERELVAVISGDGVTHYADFVKGRFVISRDNAKNAVYLKMNFLTPEDTAVYYCYAAGRWNHWGQGTQVTVSS
notes: not shown: Fc segment of the comparator
Kd [5]: 0.29 nM
